As usually defined, the Km is the substrate concentration at which the rate is half of its maximum.

10 proteins from article PMC9105384, “Ethyl Gallate Dual-Targeting PTPN6 and PPARγ Shows Anti-Diabetic and Anti-Obese Effects” (International Journal of Molecular Sciences, 2022) can be followed below.

Sequences and labels used below:
B1: PTPN21 (Homo sapiens) (protein)
chain: MPLPFGLKLKRTRRYTVSSKSCLVARIQLLNNEFVEFTLSVESTGQESLEAVAQRLELREVTYFSLWYYNKQNQRRWVDLEKPLKKQLDKYALEPTVYFGVVFYVPSVSQLQQEITRYQYYLQLKKDILEGSIPCTLEQAIQLAGLAVQADFGDFDQYESQDFLQKFALFPVGWLQDEKVLEEATQKVALLHQKYRGLTAPDAEMLYMQEVERMDGYGEESYPAKDSQGSDISIGACLEGIFVKHKNGRHPVVFRWHDIANMSHNKSFFALELANKEETIQFQTEDMETAKYIWRLCVARHKFYRLNQCNLQTQTVTVNPIRRRSSSRMSLPKPQPYVMPPPPQLHYNGHYTEPYASSQDNLFVPNQNGYYCHSQTSLDRAQIDLNGRIRNGSVYSAHSTNSLNNPQPYLQPSPMSSNPSITGSDVMRPDYLPSHRHSAVIPPSYRPTPDYETVMKQLNRGLVHAERQSHSLRNLNIGSSYAYSRPAALVYSQPEIREHAQLPSPAAAHCPFSLSYSFHSPSPYPYPAERRPVVGAVSVPELTNAQLQAQDYPSPNIMRTQVYRPPPPYPPPRPANSTPDLSRHLYISSSNPDLITRRVHHSVQTFQEDSLPVAHSLQEVSEPLTAARHAQLHKRNSIEVAGLSHGLEGLRLKERTLSASAAEVAPRAVSVGSQPSVFTERTQREGPEEAEGLRYGHKKSLSDATMLIHSSEEEEDEDFEEESGARAPPARAREPRPGLAQDPPGCPRVLLAGPLHILEPKAHVPDAEKRMMDSSPVRTTAEAQRPWRDGLLMPSMSESDLTTSGRYRARRDSLKKRPVSDLLSGKKNIVEGLPPLGGMKKTRVDAKKIGPLKLAALNGLSLSRVPLPDEGKEVATRATNDERCKILEQRLEQGMVFTEYERILKKRLVDGECSTARLPENAERNRFQDVLPYDDVRVELVPTKENNTGYINASHIKVSVSGIEWDYIATQGPLQNTCQDFWQMVWEQGIAIIAMVTAEEEGGREKSFRYWPRLGSRHNTVTYGRFKITTRFRTDSGCYATTGLKMKHLLTGQERTVWHLQYTDWPEHGCPEDLKGFLSYLEEIQSVRRHTNSTSDPQSPNPPLLVHCSAGVGRTGVVILSEIMIACLEHNEVLDIPRVLDMLRQQRMMLVQTLCQYTFVYRVLIQFLKSSRLI
B2: PTPN18 (Homo sapiens) (protein)
chain: MSRSLDSARSFLERLEARGGREGAVLAGEFSDIQACSAAWKADGVCSTVAGSRPENVRKNRYKDVLPYDQTRVILSLLQEEGHSDYINGNFIRGVDGSLAYIATQGPLPHTLLDFWRLVWEFGVKVILMACREIENGRKRCERYWAQEQEPLQTGLFCITLIKEKWLNEDIMLRTLKVTFQKESRSVYQLQYMSWPDRGVPSSPDHMLAMVEEARRLQGSGPEPLCVHCSAGCGRTGVLCTVDYVRQLLLTQMIPPDFSLFDVVLKMRKQRPAAVQTEEQYRFLYHTVAQMFCSTLQNASPHYQNIKENCAPLYDDALFLRTPQALLAIPRPPGGVLRSISVPGSPGHAMADTYAVVQKRGAPAGAGSGTQTGTGTGTGARSAEEAPLYSKVTPRAQRPGAHAEDARGTLPGRVPADQSPAGSGAYEDVAGGAQTGGLGFNLRIGRPKGPRDPPAEWTRV
B3: DUSP3 (Homo sapiens) (protein)
chain: MSGSFELSVQDLNDLLSDGSGCYSLPSQPCNEVTPRIYVGNASVAQDIPKLQKLGITHVLNAAEGRSFMHVNTNANFYKDSGITYLGIKANDTQEFNLSAYFERAADFIDQALAQKNGRVLVHCREGYSRSPTLVIAYLMMRQKMDVKSALSIVRQNREIGPNDGFLAQLCQLNDRLAKEGKLKP
B4: PTPN14 (Homo sapiens) (protein)
chain: MPFGLKLRRTRRYNVLSKNCFVTRIRLLDSNVIECTLSVESTGQECLEAVAQRLELRETHYFGLWFLSKSQQARWVELEKPLKKHLDKFANEPLLFFGVMFYVPNVSWLQQEATRYQYYLQVKKDVLEGRLRCTLDQVIRLAGLAVQADFGDYNQFDSQDFLREYVLFPMDLALEEAVLEELTQKVAQEHKAHSGILPAEAELMYINEVERLDGFGQEIFPVKDNHGNCVHLGIFFMGIFVRNRIGRQAVIYRWNDMGNITHNKSTILVELINKEETALFHTDDIENAKYISRLFATRHKFYKQNKICTEQSNSPPPIRRQPTWSRSSLPRQQPYILPPVHVQCGEHYSETHTSQDSIFHGNEEALYCNSHNSLDLNYLNGTVTNGSVCSVHSVNSLNCSQSFIQASPVSSNLSIPGSDIMRADYIPSHRHSAIIVPSYRPTPDYETVMRQMKRGILHTDSQSQSLRNLNIINTHAYNQPEDLVYSQPEMRERHPYTVPYGPQGVYSNKLVSPSDQRNPKNNVVPSKPGASAISHTVSTPELANMQLQGSHNYSTAHMLKNYLFRPPPPYPRPRPATSTPDLASHRHKYVSGSSPDLVTRKVQLSVKTFQEDSSPVVHQSLQEVSEPLTATKHHGTVNKRHSLEVMNSMVRGMEAMTLKSLHLPMARRNTLREQGPPEEGSGSHEVPQLPQYHHKKTFSDATMLIHSSESEEEEEEAPESVPQIPMLREKMEYSAQLQAALARIPNKPPPEYPGPRKSVSNGALRQDQASLPPAMARARVLRHGPAKAISMSRTDPPAVNGASLGPSISEPDLTSVKERVKKEPVKERPVSEMFSLEDSIIEREMMIRNLEKQKMAGLEAQKRPLMLAALNGLSVARVSGREENRVDATRVPMDERFRTLKKKLEEGMVFTEYEQIPKKKANGIFSTAALPENAERSRIREVVPYEENRVELIPTKENNTGYINASHIKVVVGGAEWHYIATQGPLPHTCHDFWQMVWEQGVNVIAMVTAEEEGGRTKSHRYWPKLGSKHSSATYGKFKVTTKFRTDSVCYATTGLKVKHLLSGQERTVWHLQYTDWPDHGCPEDVQGFLSYLEEIQSVRRHTNSMLEGTKNRHPPIVVHCSAGVGRTGVLILSELMIYCLEHNEKVEVPMMLRLLREQRMFMIQTIAQYKFVYQVLIQFLQNSRLI
B5: DUSP22 (Homo sapiens) (protein)
chain: MGNGMNKILPGLYIGNFKDARDAEQLSKNKVTHILSVHDSARPMLEGVKYLCIPAADSPSQNLTRHFKESIKFIHECRLRGESCLVHCLAGVSRSVTLVIAYIMTVTDFGWEDALHTVRAGRSCANPNVGFQRQLQEFEKHEVHQYRQWLKEEYGESPLQDAEEAKNILAAPGILKFWAFLRRL
B6: DUSP9 (Homo sapiens) (protein)
chain: MEGLGRSCLWLRRELSPPRPRLLLLDCRSRELYESARIGGALSVALPALLLRRLRRGSLSVRALLPGPPLQPPPPAPVLLYDQGGGRRRRGEAEAEAEEWEAESVLGTLLQKLREEGYLAYYLQGGFSRFQAECPHLCETSLAGRAGSSMAPVPGPVPVVGLGSLCLGSDCSDAESEADRDSMSCGLDSEGATPPPVGLRASFPVQILPNLYLGSARDSANLESLAKLGIRYILNVTPNLPNFFEKNGDFHYKQIPISDHWSQNLSRFFPEAIEFIDEALSQNCGVLVHCLAGVSRSVTVTVAYLMQKLHLSLNDAYDLVKRKKSNISPNFNFMGQLLDFERSLRLEERHSQEQGSGGQASAASNPPSFFTTPTSDGAFELAPT
B7: DUSP18 (Homo sapiens) (protein)
chain: MTAPSCAFPVQFRQPSVSGLSQITKSLYISNGVAANNKLMLSSNQITMVINVSVEVVNTLYEDIQYMQVPVADSPNSRLCDFFDPIADHIHSVEMKQGRTLLHCAAGVSRSAALCLAYLMKYHAMSLLDAHTWTKSCRPIIRPNSGFWEQLIHYEFQLFGKNTVHMVSSPVGMIPDIYEKEVRLMIPL
B8: DUSP15 (Homo sapiens) (protein)
chain: MTEGVLPGLYLGNFIDAKDLDQLGRNKITHIISIHESPQPLLQDITYLRIPVADTPEVPIKKHFKECINFIHCCRLNGGNCLVHCFAGISRSTTIVTAYVMTVTGLGWRDVLEAIKATRPIANPNPGFRQQLEEFGWASSQKGARHRTSKTSGAQCPPMTSATCLLAARVALLSAALVREATGRTAQRCRLSPRAAAERLLGPPPHVAAGWSPDPKYQICLCFGEEDPGPTQHPKEQLIMADVQVQLRPGSSSCTLSASTERPDGSSTPGNPDGITHLQCSCLHPKRAASSSCTR
B9: PTPN12 (Homo sapiens) (protein)
chain: MEQVEILRKFIQRVQAMKSPDHNGEDNFARDFMRLRRLSTKYRTEKIYPTATGEKEENVKKNRYKDILPFDHSRVKLTLKTPSQDSDYINANFIKGVYGPKAYVATQGPLANTVIDFWRMIWEYNVVIIVMACREFEMGRKKCERYWPLYGEDPITFAPFKISCEDEQARTDYFIRTLLLEFQNESRRLYQFHYVNWPDHDVPSSFDSILDMISLMRKYQEHEDVPICIHCSAGCGRTGAICAIDYTWNLLKAGKIPEEFNVFNLIQEMRTQRHSAVQTKEQYELVHRAIAQLFEKQLQLYEIHGAQKIADGVNEINTENMVSSIEPEKQDSPPPKPPRTRSCLVEGDAKEEILQPPEPHPVPPILTPSPPSAFPTVTTVWQDNDRYHPKPVLHMVSSEQHSADLNRNYSKSTELPGKNESTIEQIDKKLERNLSFEIKKVPLQEGPKSFDGNTLLNRGHAIKIKSASPCIADKISKPQELSSDLNVGDTSQNSCVDCSVTQSNKVSVTPPEESQNSDTPPRPDRLPLDEKGHVTWSFHGPENAIPIPDLSEGNSSDINYQTRKTVSLTPSPTTQVETPDLVDHDNTSPLFRTPLSFTNPLHSDDSDSDERNSDGAVTQNKTNISTASATVSAATSTESISTRKVLPMSIARHNIAGTTHSGAEKDVDVSEDSPPPLPERTPESFVLASEHNTPVRSEWSELQSQERSEQKKSEGLITSENEKCDHPAGGIHYEMCIECPPTFSDKREQISENPTEATDIGFGNRCGKPKGPRDPPSEWT
B10: DUSP14 (Homo sapiens) (protein)
chain: MSSRGHSTLPRTLMAPRMISEGDIGGIAQITSSLFLGRGSVASNRHLLQARGITCIVNATIEIPNFNWPQFEYVKVPLADMPHAPIGLYFDTVADKIHSVSRKHGATLVHCAAGVSRSATLCIAYLMKFHNVCLLEAYNWVKARRPVIRPNVGFWRQLIDYERQLFGKSTVKMVQTPYGIVPDVYEKESRHLMPYWGI

Substrate in this data set: Cc1cc(=O)oc2c(F)c(OP(=O)(O)O)c(F)cc12
The data set is described as follows: purified protein, by the assay type. Set-up: DiFMUP hydrolysis by purified PTPs, fluorescence Ex355/Em460, initial rates over 10 min; Michaelis-Menten and Lineweaver-Burk Km. The protocol:
The enzymatic activity of each PTP was evaluated using 6,8-difluoro-4-methylumbelliferyl phosphate (DiFMUP) as the surrogate substrate. To reach within the range of the initial rate (v0) during the measurement for 10 min, the pH and concentration of each PTP were optimized and are listed in Table S3. To determine the Km values, each PTP with optimized concentration was added to the reaction buffer (20 mM Bis-Tris at pH 6.0 or Tris at pH 7.0 and 8.0, 150 mM NaCl, 2.5 mM dithiothreitol (DTT), 0.01% Triton X-100) containing various concentrations of DiFMUP to obtain a final volume of 100 μL in a 96-well plate. Fluorescence intensities were measured once every minute for a complete 10 min duration using a Victor™ X4 Multilabel Plate Reader (Perkin Elmer, Waltham, MA, USA) at excitation/emission = 355 nm/460 nm. The initial rates of the reaction were determined using a previously described procedure for calculating the amount of product formation. To screen a library of 1033 natural products (Chengdu Biopurify Phytochemicals Ltd., Chengdu, China) against 20 PTPs, each PTP with an optimized concentration was added to the reaction buffer with an optimized pH containing DiFMUP (2 × Km for each PTP) after adding each compound (20 μM). […] The IC50 values were estimated using a sigmoid plot in GraphPad Prism 5 software (GraphPad Software Inc., San Diego, CA, USA). The Hill coefficient (nH), the degree of cooperativity, was calculated according to a previously published method. To determine the inhibition constant (Ki) and identify the inhibition mode of EG, various concentrations of EG (2.5, 5, 10, and 20 μM) were assayed with various concentrations of DiFMUP (260, 130, 65, and 32.5 μM). Kinetic parameters were obtained using Dixon plots for Ki and Lineweaver-Burk plots for the inhibition mode.
Take B1: the Km amounted to 46.7 µM.

Take B2: the Km came out at 5.5 µM.

Consider B3, for which the Km is 100.0 µM.

On to B4, for which the Km was found to be 423.7 µM.

On to B5, for which the Km amounted to 13.0 µM.

Take B6: the Km amounted to 35.0 µM.

On to B7, for which the Michaelis constant (Km) is 29.0 µM.

For B8, the Michaelis-Menten constant (Km) came out at 9.1 µM.

As to B9, the Km is 75.8 µM.

Regarding B10, the Km worked out at 55.0 µM.
